Test results published in paper PMC6726503 (Structure (London, England : 1993), 2019).

Biological target: T1, TGF-β2DM:TβRII binary complex (human, UniProt P37173 23-166)
T1 chain 1: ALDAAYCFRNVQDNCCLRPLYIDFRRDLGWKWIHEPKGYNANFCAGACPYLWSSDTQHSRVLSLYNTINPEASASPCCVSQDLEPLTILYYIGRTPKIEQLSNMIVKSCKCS
T1 chain 2: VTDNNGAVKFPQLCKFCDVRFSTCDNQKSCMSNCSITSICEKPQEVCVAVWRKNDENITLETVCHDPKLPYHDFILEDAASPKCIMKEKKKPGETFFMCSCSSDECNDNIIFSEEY
Assay: SEC-MALS

B1: full-length rat betaglycan ectodomain (domain or fragment, UniProt P26342 24-789, looked up)
chain: GPEPSTRCELSPINASHPVQALMESFTVLSGCASRGTTGLPREVHVLNLRSTDQGPGQRQREVTLHLNPIASVHTHHKPIVFLLNSPQPLVWHLKTERLAAGVPRLFLVSEGSVVQFPSGNFSLTAETEERNFPQENEHLLRWAQKEYGAVTSFTELKIARNIYIKVGEDQVFPPTCNIGKNFLSLNYLAEYLQPKAAEGCVLPSQPHEKEVHIIELITPSSNPYSAFQVDIIVDIRPAQEDPEVVKNLVLILKCKKSVNWVIKSFDVKGNLKVIAPNSIGFGKESERSMTMTKLVRDDIPSTQENLMKWALDNGYRPVTSYTMAPVANRFHLRLENNEEMRDEEVHTIPPELRILLDPDHPPALDNPLFPGEGSPNGGLPFPFPDIPRRGWKEGEDRIPRPKQPIVPSVQLLPDHREPEEVQGGVDIALSVKCDHEKMVVAVDKDSFQTNGYSGMELTLLDPSCKAKMNGTHFVLESPLNGCGTRHRRSTPDGVVYYNSIVVQAPSPGDSSGWPDGYEDLESGDNGFPGDGDEGETAPLSRAGVVVFNCSLRQLRNPSGFQGQLDGNATFNMELYNTDLFLVPSPGVFSVAENEHVYVEVSVTKADQDLGFAIQTCFLSPYSNPDRMSDYTIIENICPKDDSVKFYSSKRVHFPIPHAEVDKKRFSFLFKSVFNTSLLFLHCELTLCSRKKGSLKLPRCVTPDDACTSLDATMIWTMMQNKKTFTKPLAVVLQVDYKENVPSTKDSSPIPPPPPQIFHGLDTLTV
stoichiometry N: 1 BG_(O-ZP) per TGF-β2DM dimer
